Experimental data published in patent publication US20100261220A1.

Key:
[1] = tested on: brain α-tubulin (taxotere-stabilized brain microtubules, Example VII)
[2] = tested on: brain β-tubulin (taxotere-stabilized brain microtubules, Example VII)
[3] = molecular target: α-tubulin of taxotere-stabilized mouse brain microtubules (mouse); assay: cell-based or functional assay
[4] = molecular target: β-tubulin of taxotere-stabilized mouse brain microtubules (mouse); assay: cell-based or functional assay
[5] = tested on: α-tubulin of taxotere-stabilized mouse brain microtubules
[6] = tested on: adult murine brain tubulin
[7] = tested on: young murine brain tubulin

GFP-Ttll3Ap (Tetrahymena Ttll3Ap with N-terminal GFP)
in vitro tubulin glycylation activity (3H-glycine incorporation) [1]: A GFP-Ttll3Ap-enriched extract showed a strong increase in glycylation activity on α- and β-tubulin
in vitro tubulin glycylation activity (3H-glycine incorporation) [2]: A GFP-Ttll3Ap-enriched extract showed a strong increase in glycylation activity on α- and β-tubulin

Ttll6ApΔ710-GFP (truncated Tetrahymena Ttll6Ap, amino acid codons 1-710, with N-terminal GFP) (from UniProt P42212 1-238) (enzyme)
in vitro glutamylase activity of extracts of overexpressing cells, compared to non-induced cells [3]: 10 fold
in vitro glutamylase activity of extracts of overexpressing cells, compared to non-induced cells [4]: 100 fold

Ttll6ApΔ710-GFP (truncated Tetrahymena Ttll6Ap, amino acid codons 1-710, with N-terminal GFP)
in vitro glutamylase activity (NAP proteins): No in vitro activity toward NAP proteins was detected.

GFP-Ttll3Bp (Tetrahymena Ttll3Bp with N-terminal GFP)
in vitro tubulin glycylation activity (3H-glycine incorporation) [1]: the GFP-Ttll3Bp-enriched extract had increased activity on α-tubulin

Ttll1p-GFP (Tetrahymena thermophila Ttll1p with an N-terminal GFP)
in vitro glutamylase activity of the anti-GFP immunoprecipitate [5]: a glutamylase activity directed mostly toward α-tubulin was co-immunoprecipitated with anti-GFP antibodies from extracts of overexpressing cells

GFP-Ttll6Ap (full-length Tetrahymena Ttll6Ap with N-terminal GFP)
in vitro glutamylation of microtubules (3H-glutamate, fluorogram) (HeLa tubulin): failed to detectably modify microtubules made of HeLa tubulin
in vitro glutamylation of microtubules (3H-glutamate, fluorogram) [6]: Enriched GFP-Ttll6Ap strongly modified microtubules made of adult brain tubulin
in vitro glutamylation of unpolymerized tubulin (3H-glutamate, fluorogram) [6]: enriched GFP-Ttll6Ap did not modify unpolymerized adult brain tubulin
in vitro glutamylation of microtubules (3H-glutamate, fluorogram) [7]: less efficiently microtubules made of young brain tubulin
